From patent US20110082078

Tested on: ZFP-TF 14172-p65 (rat GDNF activator) (synthetic)
Experiment: cell_activity
Settings: GDNF mRNA increase vs AAV-GFP in rat eye; also activates in rat striatal neurons (FIG. 5)

“GGGGGCGCGGAACCGGGA (double strand) [rat GDNF target site (SEQ ID NO:55)]” showed an activity of 5 fold.
